Here are results for three molecules from article PMC2898518.

The target of data set [1] is T1, p53 wild-type (UniProt P04637 1-393). Kind of data set: EMSA. In general terms: Mobility shift assays separate free from complexed probe on a gel.
Data set [2] has as its target T1, p53 wild-type. As to the kind of experiment: filter binding.

Changes are numbered by the printed parent chain.

T1 sequence (P04637 whole entry): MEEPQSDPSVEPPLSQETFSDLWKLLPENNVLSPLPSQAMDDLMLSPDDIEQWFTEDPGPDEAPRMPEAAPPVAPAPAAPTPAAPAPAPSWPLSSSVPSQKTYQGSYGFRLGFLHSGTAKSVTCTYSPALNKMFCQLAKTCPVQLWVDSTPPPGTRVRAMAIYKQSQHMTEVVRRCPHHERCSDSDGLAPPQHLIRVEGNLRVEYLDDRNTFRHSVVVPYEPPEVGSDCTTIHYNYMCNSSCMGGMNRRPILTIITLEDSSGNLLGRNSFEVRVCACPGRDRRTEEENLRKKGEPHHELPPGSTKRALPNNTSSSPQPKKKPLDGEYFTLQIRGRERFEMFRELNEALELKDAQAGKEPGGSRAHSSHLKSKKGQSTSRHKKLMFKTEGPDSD

B1: 66-bp circular wild-type GADD45 (dsDNA)
DNA 1: AGCTGATATCGAATTCTCGAGCAGAACATGTCTAAGCATGCTGGGCTCGAGAATTCCTGCAGCGCT
DNA 2: AGCGCTGCAGGAATTCTCGAGCCCAGCATGCTTAGACATGTTCTGCTCGAGAATTCGATATCAGCT
Consider B1, for which the binding signal in data set [1] is 1 fold (reference).

B2: 66-bp circular mutant GADD45 (dsDNA)
DNA 1: B1 DNA 1 with C27A, G30T, C37A, G40T
DNA 2: B1 DNA 2 with C27A, G30T, C37A, G40T
For the molecule B2, in data set [1], the binding signal is 1 fold (reference).

B3: p21 site 32-mer (dsDNA)
DNA 1: TAGAGCGAACATGTCCCAACATGTTGGCGTCG
DNA 2: CGACGCCAACATGTTGGGACATGTTCGCTCTA
As for B3, in data set [2], the binding signal was 1 fold (reference).
